Reference: US20260209386A1 (MYTHIC THERAPEUTICS, published 2026)
Substitutions are numbered along the chain they refer to. Read-outs that look alike come from different tables or passages of the source. Blank lines part the entries; values can stand above or below the binder they belong to.

Assays:
[1] = biological target: T1, Human PTK7 Protein, His Tag, Acro Biosystems (human, UniProt Q13308 31-704); assay: BLI, anti-human Fc capture, 50 nM PTK7; 2 = substantially similar binding relative to parent
T1 construct: Bought recombinant protein; also called CCK4; not shown: His tag
T1 sequence: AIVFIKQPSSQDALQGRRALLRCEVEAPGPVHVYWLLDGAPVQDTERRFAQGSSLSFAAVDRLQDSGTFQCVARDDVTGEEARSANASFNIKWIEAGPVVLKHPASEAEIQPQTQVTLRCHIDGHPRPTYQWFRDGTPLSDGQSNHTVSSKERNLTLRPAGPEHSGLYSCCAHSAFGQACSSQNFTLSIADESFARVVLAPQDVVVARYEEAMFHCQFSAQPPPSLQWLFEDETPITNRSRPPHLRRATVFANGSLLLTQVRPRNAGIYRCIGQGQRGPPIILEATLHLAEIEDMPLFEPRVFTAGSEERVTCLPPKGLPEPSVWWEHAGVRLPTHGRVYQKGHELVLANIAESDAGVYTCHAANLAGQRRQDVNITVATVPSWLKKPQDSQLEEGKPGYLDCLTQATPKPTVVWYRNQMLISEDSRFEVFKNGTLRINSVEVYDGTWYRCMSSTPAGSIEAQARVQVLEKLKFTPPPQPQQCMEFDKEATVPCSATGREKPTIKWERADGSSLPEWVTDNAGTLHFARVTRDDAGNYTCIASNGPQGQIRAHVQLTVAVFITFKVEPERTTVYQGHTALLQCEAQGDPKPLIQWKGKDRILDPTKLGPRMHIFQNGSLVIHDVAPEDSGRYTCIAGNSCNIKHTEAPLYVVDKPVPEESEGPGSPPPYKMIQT

[2] = biological target: T2, Human PTK7 Protein, His Tag, Acro Biosystems (human, UniProt Q13308 31-704); assay: as above; remark: listed apart in the source
T2 construct: Bought recombinant protein; also called CCK4; not shown: His tag
T2 sequence: T1 sequence

binding result [1]: binds
B1: MYT11155 (antibody, V domains shown)
VH: EVQLVESGGGLVQPGGSLRLSCTASGFSLSTYAMSWVRQAPGKGLEWVGMIYINDNTYYASWAKGRFTISRDTSKNTVYLQMNSLRAEDTAVYFCARDIGISYYIGVSLWGQGTLVTVSS
VL: EIVMTQSPSTLSASVGDRVIITCQASQSIGTRLHWYQQKPGKAPKLLIYGASKLATGVPSRFSGSGSGAEFTLTISSLQPDDFATYYCLGEYSYTTTDGIAFGQGTKLTVL
notes: MYT9412 LC variant

binding result [1]: binds
B2: MYT11164 (antibody, V domains shown)
VH: B1 VH
VL: B1 VL with H34S, G90H
notes: MYT9412 LC variant

binding result [1]: binds
B3: MYT11168 (antibody, V domains shown)
VH: B1 VH
VL: B1 VL with H34S, Y94H
notes: MYT9412 LC variant

binding result [1]: binds
B7: MYT11171 (antibody, V domains shown)
VH: B1 VH
VL: B1 VL with H34S, T97H
notes: MYT9412 LC variant

binding result [1]: binds
B8: MYT11179 (antibody, V domains shown)
VH: B1 VH
VL: B1 VL with H34S, E91A
notes: MYT9412 LC alanine variant

binding result [1]: binds
B9: MYT11173 (antibody, V domains shown)
VH: B1 VH
VL: B1 VL with H34S, G99H
notes: MYT9412 LC variant

binding result [1]: binds
B10: MYT11169 (antibody, V domains shown)
VH: B1 VH
VL: B1 VL with H34S, T95H
notes: MYT9412 LC variant

binding result [1]: binds
B11: MYT11175 (antibody, V domains shown)
VH: B1 VH
VL: B1 VL with H34S, A101H
notes: MYT9412 LC variant

binding result [1]: binds
B14: MYT11156 (antibody, V domains shown)
VH: B1 VH
VL: B1 VL with H34S, G50H
notes: MYT9412 LC variant

binding result [1]: binds
B16: MYT11162 (antibody, V domains shown)
VH: B1 VH
VL: B1 VL with H34S, T56H
notes: MYT9412 LC variant

binding result [2]: binds
B19: MYT11275 (antibody, V domains shown)
VH: EVQLVESGGGLVQPGGSLRLSCTASGIDLSRYSMGWVRQAPGKGLEWVGIISYGGSTYYAHWAKGRFTISRDTSKNTVYLQMNSLRAEDTAVYFCARVGYPGYSGYGYAFDAFDPWGQGTLVTVSS
VL: EIVMTQSPSTLSASVGDRVIITCQSSKSVYNDNWLSWYQQKPGKAPKLLIYGASTLASGVPSRFSGSGSGAEFTLTISSLQPDDFATYYCAGGYSSSSDNGFGQGTKLTVL
notes: MYT9792 variant, His at VH 61 (H2 12)

binding result [2]: binds
B21: MYT11290 (antibody, V domains shown)
VH: B19 VH with H61S, Y106H
VL: B19 VL

binding result [2]: binds
B22: MYT11300 (antibody, V domains shown)
VH: B19 VH with H61S, F94Y
VL: B19 VL

binding result [2]: binds
B24: MYT11254 (antibody, V domains shown)
VH: B19 VH with G26H, H61S
VL: B19 VL
notes: MYT9792 variant, His at VH 26 (H1 01)

binding result [2]: binds
B25: MYT11274 (antibody, V domains shown)
VH: B19 VH with A60H, H61S
VL: B19 VL
notes: MYT9792 variant, His at VH 60 (H2 11)

binding result [2]: binds
B26: MYT11268 (antibody, V domains shown)
VH: B19 VH with G54H, H61S
VL: B19 VL
notes: MYT9792 variant, His at VH 54 (H2 05)

binding result [2]: binds
B27: MYT11286 (antibody, V domains shown)
VH: B19 VH with H61S, G102H
VL: B19 VL
notes: MYT9792 variant, His at VH 102 (H3 07)

binding result [2]: binds
B28: MYT11270 (antibody, V domains shown)
VH: B19 VH with S56H, H61S
VL: B19 VL
notes: MYT9792 variant, His at VH 56 (H2 07)

binding result [2]: binds
B31: MYT11269 (antibody, V domains shown)
VH: B19 VH with G55H, H61S
VL: B19 VL
notes: MYT9792 variant, His at VH 55 (H2 06)

binding result [2]: binds
B33: MYT11255 (antibody, V domains shown)
VH: B19 VH with I27H, H61S
VL: B19 VL
notes: MYT9792 variant, His at VH 27 (H1 02)

binding result [2]: binds
B37: MYT11277 (antibody, V domains shown)
VH: B19 VH with H61S, A63H
VL: B19 VL
notes: MYT9792 variant, His at VH 63 (H2 14)

binding result [2]: binds
B38: MYT11273 (antibody, V domains shown)
VH: B19 VH with Y59H, H61S
VL: B19 VL
notes: MYT9792 variant, His at VH 59 (H2 10)

binding result [2]: binds
B39: MYT11299 (antibody, V domains shown)
VH: B19 VH with H61S, P115H
VL: B19 VL

The next lines start with the binder.

B4: MYT11158 (antibody, V domains shown)
VH: B1 VH
VL: B1 VL with H34S, S52H
notes: MYT9412 LC variant
binding result [1]: binds

B5: MYT11170 (antibody, V domains shown)
VH: B1 VH
VL: B1 VL with H34S, T96H
notes: MYT9412 LC variant
binding result [1]: binds

B6: MYT11157 (antibody, V domains shown)
VH: B1 VH
VL: B1 VL with H34S, A51H
notes: MYT9412 LC variant
binding result [1]: binds

B12: MYT11167 (antibody, V domains shown)
VH: B1 VH
VL: B1 VL with H34S, S93H
notes: MYT9412 LC variant
binding result [1]: binds

B13: MYT11161 (antibody, V domains shown)
VH: B1 VH
VL: B1 VL with H34S, A55H
notes: MYT9412 LC variant
binding result [1]: binds

B15: MYT11160 (antibody, V domains shown)
VH: B1 VH
VL: B1 VL with H34S, L54H
notes: MYT9412 LC variant
binding result [1]: binds

B17: MYT11159 (antibody, V domains shown)
VH: B1 VH
VL: B1 VL with H34S, K53H
notes: MYT9412 LC variant
binding result [1]: binds

B18: MYT11256 (antibody, V domains shown)
VH: B19 VH with D28H, H61S
VL: B19 VL
notes: MYT9792 variant, His at VH 28 (H1 03)
binding result [2]: binds

B20: MYT11262 (antibody, V domains shown)
VH: B19 VH with M34H, H61S
VL: B19 VL
notes: MYT9792 variant, His at VH 34 (H1 09)
binding result [2]: binds

B23: MYT11298 (antibody, V domains shown)
VH: B19 VH with H61S, D114H
VL: B19 VL
binding result [2]: binds

B29: MYT11278 (antibody, V domains shown)
VH: B19 VH with H61S, K64H
VL: B19 VL
notes: MYT9792 variant, His at VH 64 (H2 15)
binding result [2]: binds

B30: MYT11265 (antibody, V domains shown)
VH: B19 VH with I51H, H61S
VL: B19 VL
notes: MYT9792 variant, His at VH 51 (H2 02)
binding result [2]: binds

B32: MYT11276 (antibody, V domains shown)
VH: B19 VH with H61S, W62H
VL: B19 VL
notes: MYT9792 variant, His at VH 62 (H2 13)
binding result [2]: binds

B34: MYT11260 (antibody, V domains shown)
VH: B19 VH with Y32H, H61S
VL: B19 VL
notes: MYT9792 variant, His at VH 32 (H1 07)
binding result [2]: binds

B35: MYT11266 (antibody, V domains shown)
VH: B19 VH with S52H, H61S
VL: B19 VL
notes: MYT9792 variant, His at VH 52 (H2 03)
binding result [2]: binds

B36: MYT11288 (antibody, V domains shown)
VH: B19 VH with H61S, S104H
VL: B19 VL
notes: MYT9792 variant, His at VH 104 (H3 09)
binding result [2]: binds
